Test system: MutS (MBP-MutS-H6 fusion) (Thermus aquaticus)
Test: pulldown
Details: MutS selectivity factor M estimated by model from consensus shuffling error rates; 20 mM Tris-HCl pH 7.8, 10 mM NaCl, 5 mM MgCl2, 1 mM DTT, 5% glycerol, room …

Q: How did the binding signal (fold selectivity) turn out when “re-hybridized GFPuv fragments (average 150 bp) containing synthesis-error mismatches” was run?
A: The binding signal (fold selectivity) was 2.2.

From patent US7820412
